Laboratory results reported in PMC7231638.
Where two headings read alike, the source gives them in different places.

How the values were obtained:
Mre11ND Y187C [1] = molecular target: T1, Mre11ND Y187C (Pyrococcus furiosus, UniProt Q8U1N9 1-342, Y187C); assay: fluorescence polarization
Mre11ND Y187F [2] = molecular target: T2, Mre11ND Y187F (Pyrococcus furiosus, UniProt Q8U1N9 1-342, Y187F); assay: fluorescence polarization
Mre11ND WT [3] = molecular target: T3, Mre11ND WT (Pyrococcus furiosus, UniProt Q8U1N9 1-342); assay: fluorescence polarization
Mre11ND H52S [4] = molecular target: T4, Mre11ND H52S (Pyrococcus furiosus, UniProt Q8U1N9 1-342, H52S); assay: fluorescence polarization
[5] = molecular target: T5, Mre11 H52S (in MRNBD);Rad50NBD (Pyrococcus furiosus;Pyrococcus furiosus, UniProt Q8U1N9;P58301 1-426;1-195+709-882, H52S|internal_change); assay: fluorescence polarization
[6] = molecular target: T6, Mre11 WT (in MRNBD);Rad50NBD (Pyrococcus furiosus;Pyrococcus furiosus, UniProt Q8U1N9;P58301 1-426;1-195+709-882, |internal_change); assay: fluorescence polarization
[7] = molecular target: T7, Mre11 Y187C (in MRNBD);Rad50NBD (Pyrococcus furiosus;Pyrococcus furiosus, UniProt Q8U1N9;P58301 1-426;1-195+709-882, Y187C|internal_change); assay: fluorescence polarization
[8] = molecular target: T8, Mre11 Y187F (in MRNBD);Rad50NBD (Pyrococcus furiosus;Pyrococcus furiosus, UniProt Q8U1N9;P58301 1-426;1-195+709-882, Y187F|internal_change); assay: fluorescence polarization
Mre11ND WT [9] = molecular target: T3, Mre11ND WT; assay: fluorescence polarization; remark: listed apart in the source
Mre11ND Y187C [10] = molecular target: T1, Mre11ND Y187C; assay: fluorescence polarization; remark: listed apart in the source
Mre11ND H52S [11] = molecular target: T4, Mre11ND H52S; assay: fluorescence polarization; remark: listed apart in the source
[12] = molecular target: T7, Mre11 Y187C (in MRNBD);Rad50NBD; assay: fluorescence polarization; remark: listed apart in the source
[13] = molecular target: T5, Mre11 H52S (in MRNBD);Rad50NBD; assay: fluorescence polarization; remark: listed apart in the source
[14] = molecular target: T6, Mre11 WT (in MRNBD);Rad50NBD; assay: fluorescence polarization; remark: listed apart in the source
[15] = molecular target: T8, Mre11 Y187F (in MRNBD);Rad50NBD; assay: fluorescence polarization; remark: listed apart in the source
Mre11ND Y187F [16] = molecular target: T2, Mre11ND Y187F; assay: fluorescence polarization; remark: listed apart in the source
Mre11ND Y187F [17] = molecular target: T2, Mre11ND Y187F; assay: NMR imino proton melting

GTGTTCGGACTCTGCCTCAAGACGGTAGTCAACGTGCTTG (ssDNA) [FAM 40-mer ssDNA]
Kd (Mre11ND Y187C [1]): 240 nM
Kd (Mre11ND Y187F [2]): 110 nM
Kd (Mre11ND WT [3]): 130 nM
Kd (Mre11ND H52S [4]): 170 nM
Kd [5]: 170 nM
Kd [6]: 180 nM
Kd [7]: 210 nM
Kd [8]: 190 nM

B1: FAM 40-mer dsDNA (dsDNA)
DNA 1: GTGTTCGGACTCTGCCTCAAGACGGTAGTCAACGTGCTTG
DNA 2: CAAGCACGTTGACTACCGTCTTGAGGCAGAGTCCGAACAC
Kd (Mre11ND WT [9]): 1300 nM
Kd (Mre11ND Y187C [10]): 1980 nM
Kd (Mre11ND H52S [11]): 3.17 µM
Kd [12]: 1800 nM
Kd [13]: 4.17 µM
Kd [14]: 1410 nM
Kd [15]: 1320 nM
Kd (Mre11ND Y187F [16]): 710 nM

CACGCACGTAGAAGCTTTTGCTTCTACGTGCGTGACT (structured_DNA) [hairpin dsDNA DSB mimic]
binding result (Mre11ND Y187F [17]): binds
